In paper doi:10.1101/2025.08.28.672883 (bioRxiv, 2025):

Legend:
Settings in all cases: both partners purified
[1] = target: SARS-CoV-2 Omicron BA.1 spike receptor-binding domain (SARS-CoV-2 Omicron BA.1, S371L | S373P | S375F | Q493R | Q498R | N501Y | Y505H); assay: BLI; Octet Red; […] (20 ug/ml) […]; kinetics buffer 1x PBS pH 7.4, 0.01% BSA, 0.002% Tween 20; 1:1 binding model
[2] = target: SARS-CoV-2 Omicron BA.5 spike receptor-binding domain (SARS-CoV-2 Omicron BA.5, S375F | D405N | N501Y | Y505H); assay: crystal structure
[3] = target: SARS-CoV-2 Omicron JN.1 spike receptor-binding domain (SARS-CoV-2 Omicron JN.1, strain); assay: BLI; Octet Red; […] (20 ug/ml) […]; kinetics buffer 1x PBS pH 7.4, 0.01% BSA, 0.002% Tween 20; 1:1 binding model
[4] = target: SARS-CoV-2 Omicron BQ.1.1 spike receptor-binding domain (SARS-CoV-2 Omicron BQ.1.1, strain); assay: as above
[5] = target: SARS-CoV-2 Omicron XBB.1.5 spike receptor-binding domain (SARS-CoV-2 Omicron XBB.1.5, strain); assay: as above

Measured: binding result

B1: ADI-77310 Fab (Fab, V domains shown)
VH: EVQLVESGGGLVKPGGSLRLSCAASGFTFGSYYMNWVRQAPGKGLEWVSSISEDGYSTYYPDSLKGRFTISRDSAKNSLYLQMNSLRADDTAVYYCARDFGGHTAWAGTGFTYWGQGTLVTVSS
VL: QSVLTQPPSVSGAPGQRITISCTGSSSNIGAGYDVHWYQQLPGTAPKLLIYGSSSRNSGVPDRFSGSKSGTSASLAITGLQAEDEADYYCQSYDSDLSVLYTFGTGTKVTVL
binds: [1]

B2: VYD222 Fab (Fab, V domains shown)
VH: EVQLVESGGGLVKPGGSLRLSCAASGFTFGSYEMNWVRQAPGKGLEWVSSISEDGYSTYYPDSLKGRFTISRDSAKNSLYLQMNSLRADDTAVYYCARDFGGDTAWAGTGFTYWGQGTLVTVSS
VL: QSVLTQPPSVSGAPGQRITISCTGSSSNIGAGYDVHWYQQLPGTAPKLLIYGSSSRNYGVPDRFSGSKSGTSASLAITGLQAEDEADYYCQSYDSDLGVLYTFGTGTKVTVL
binds: all assays above
